Results published in the supplement of paper PMC9170038.

Tested on: MS2 coat protein
Assay: apparent KD of MS2 coat protein; higher = weaker reporter binding
Conditions: Eterna round: R107
Procedure, shortened: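 Designed RNA switches were transcribed on-chip from Illumina sequencing clusters. SNAP-549-labelled MS2 coat protein was titrated onto them in twofold steps from 0.7 or 1.5 nM to 3 µM in 100 mM Tris-HCl pH 7.5, 80 mM KCl, 4 mM MgCl2, either without or with constant ligand. Apparent KD reflects the per-design median of normalised cluster binding-curve fits.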

[1] = input ligand: theophylline 20 uM
[2] = input ligand: tryptophan 2.4 mM
[3] = input ligand: theophylline 2 mM

Row | Sequence | apparent KD of MS2 coat protein (input ligand: arginine 13.2 mM) [nM] | apparent KD of MS2 coat protein [1] [nM] | apparent KD of MS2 coat protein [2] [nM] | apparent KD of MS2 coat protein (input ligand: none) [nM] | apparent KD of MS2 coat protein [3] [nM]
1 | ACAUGAGGAUCACCCAUGUCACGGCACGAUACCAGCUGAUGCGGUGGCCCUUGGCAGCGUGACGUUUGGUCCCGCGGAUGACACG [qsmullin] | 86.4 | 280 | 240 | – | –
2 | GCCGCGGCCGCGAUACACAUGGGUGUGUAACGAGGACCGGUACGGCCGCCACUCGAGAUGGCACAUGAGGAUCACCCAUGUGUGC [Exclusion Tryp A GF16] | 17.1 | 60.2 | 29.9 | 24.1 | 44.5
3 | CCUCGGGACCGAAGGAGCGAGAUAACAACAAUGGGUCUCUACACAUGAGGAUCACCCAUGUCUCAGGUAGGUCGCGGUACCUUAG [Exclusion Arginine B GF23] | 137 | 287 | 238 | 261 | 491
4 | GGAGCUACGUCGGCCGCCACUAGCGGGUAUUGCGUGUACAUGAGGAUCACCCAUGUAAUACGGCCUAGGACCGGGACGUAGCUCC [Raven] | 12.1 | 19.1 | 13.8 | – | 14.5
5 | UGUACCUAGUCGGCCGCCACUCAAUAAUGAGAGGAUCACCCUCAUAAACGAGUCAAAGACUCGAUGAGGACCGGGACUAGGUACU [Palindromic MS2 2 #AlternativeMS2 #Palindrome #StaticStem] | 59.4 | 73.2 | 21.1 | 53 | 72.7
6 | GGUUACUCUACGGCCGCCACUGUAAAGUAAAGAUUACUGUACAUGACAUGAGGAUCACCCAUGUACAGGACCGGGUAGUGUAACC [Tryptophan B 15] | 32.2 | 46.3 | – | – | 35.5
7 | GCUAGGUCUACGGCCGCCACUAGACGUGGGUAAGACAUGAGGAUCACCCAUGUACUACAGGCGCAUAGGACCGGGUAGACCUAGC [SSTB NP+V+V2 #11 Same Structure] | 49.6 | 74.5 | 13.2 | 78.9 | 82.6
8 | GCGGACAUGAGGAUCACCCAUGUAAAUCCUCGAGGACCGGUACGGCCGCCACUCGAACGAGUGGCGCGCGAGCGCGCGCUCGCGC [aBa] | 39.4 | 60.3 | 45.7 | 30.2 | 36.4
9 | AAUAACAUGAGGAUCACCCAUGUAAAAGAUACCAGAUGCAUGAUGAUCCCUUGGCAGCUUAAAACGCGAUUGGAAACAAUCGCGA [Mat - Same State Theophlline A - Mod of Eli - D13] | 46.1 | 93.4 | 30.8 | – | –
10 | CGUAUUGGAAACAGUACGAGUGAUCCGGUCCGAGGACCGGUACGGCCGCCACUCGAAAUUAAUAAACAUGAGGAUCACCCAUGUA [Ex Tryptophan A 10] | 14.8 | 19.6 | – | – | 20.2
11 | AUCGUACCUGAUGAUACCAGCAAUUGCUCGUGACAUGAGGAUCACCCAUGUGACCAGUGAUGCCCUUGGCAGCAUGGUCGGUGCA [Same State - Theophylline B (Freestyle 22)] | 42.8 | 79.3 | 69.5 | – | –
12 | GGGUACAUCGCGGCCGCCACUUAUGUAAAUACAUGAGGAUCACCCAUGUCGAUGGAGACAUCGGAAAGGACCGGGUGAUGUACCG | 130 | 271 | – | – | 262
13 | AAUAUAUAGACGGCCGCCACUGGAAUUAAUACAUGAGGAUCACCCAUGUGAAGAGGAUAAUAACACAGGACCGGGUCUUCAUGUA [SS Tryp B Tesla 1.2] | 68.5 | 137 | 138 | 37.4 | 452
14 | AGAAAGAAACAAAACUCAAGGAGAACCGAAGGAGCGGCGAAAGAGCCAGGUAGGUCGCGGUCCUCAACAUGAGGAUCACCCAUGU | 61.6 | 83.5 | 96.6 | 104 | 186
